The text below walks through data of patent US20230103563A1 (Sanofi, published 2023).

Assay [1] concerns the target T1, human IL4 (IL004, Millipore) (human, UniProt P05112 25-153).
T1 construct: Bought protein, used as analyte in SPR; also called interleukin IL4
T1 sequence (looked up): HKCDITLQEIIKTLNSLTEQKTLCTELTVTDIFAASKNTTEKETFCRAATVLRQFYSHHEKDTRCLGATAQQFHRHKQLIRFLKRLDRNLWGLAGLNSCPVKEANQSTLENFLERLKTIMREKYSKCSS
Briefly: SPR (Biacore), variant captured with Fab-capture kit, IL4 as analyte. How it is done:
(§1) Binding of antigens to the antibody constructs was measured using surface plasmon resonance (SPR) on a BIAcore 3000 instrument (GE Healthcare) with HBS-EP buffer (GE Healthcare). As antigens human IL4 (IL004, Millipore) and human IL13 (IL012, Millipore) were used. The capture antibody (human antibody capture kit, His capture kit, Fab capture kit, GE Life Sciences) was immobilized via primary amine groups (11000 RU) on a research grade CMS chip (GE Life Sciences) using standard procedures. […] The antigens human IL4 and human IL13 were used as analytes and injected for 240 sec with a dissociation time of 300 sec at a flow rate of 30 μL/min. IL4 and IL13 were used in a dilution series of 0.1 nM to 3 nM and 0.8 nM to 25 nM, respectively. Chip surfaces were regenerated with 2 min injects of the regeneration buffer provided with the capture kit. Sensorgrams were double referenced with a blank chip surface and HBS-EP buffer blanks. Recombinant human neonatal Fc-receptor (FcRn) protein was immobilized via primary amine groups (200 RU) in the sample flow cell compartment of a research grade CMS chip (GE Life Sciences) using standard procedures. The reference flow cell compartment was activated and deactivated without FcRn immobilization to generate a blank chip surface. For the analysis an assay buffer with pH 6.0 was used (150 mM NaCl, 20 mM Na-phosphate, 0.05% surfactant P20, pH6.0). The antibody was used as analyte at 800 nM dilution in assay buffer and injected over reference and sample flow cells for 240 sec with a dissociation time of 300 sec at a flow rate of 30 μL/min. Chip surfaces were regenerated with 2 min injects of HBS-EP buffer at 30 μl/min. Sensorgrams were double referenced with a the blank chip surface and HBS-EP buffer blanks. All data analysis was done using the BIAevaluation software v4.1.
Background: In SPR one partner is held on a chip, and binding of the other changes the refractive index at the surface.

Assay [2] concerns the target T1, human IL4 (IL004, Millipore). Kind of assay: SPR (Biacore), variant captured with His-capture kit, IL4 as analyte. How it is done: as §1
The target is the same in assay [3]. Briefly: SPR (Biacore 3000), construct captured, IL4 as analyte; summary table. How it is done: as §1

B1: protein variant (2), DVD-Fab Split CH2 (anti-IL4/anti-IL13) (bispecific antibody, IgG1)
chain 1: DIVLTQSPASLAVSLGQRATISCRASESVDSYGQSYMHWYQQKAGQPPKLLIYLASNLESGVPARFSGSGSRTDFTLTIDPVQAEDAATYYCQQNAEDSRTFGGGTKLEIKGGGGSGGGGSDIQMTQSPASLSVSVGDTITLTCHASQNIDVWLSWFQQKPGNIPKLLIYKASNLHTGVPSRFSGSGSGTGFTLTISSLQPEDIATYYCQQAHSYPFTFGGGTKLEIKRTVAAPSVFIFPPSDEQLKSGTASVVCLLNNFYPREAKVQWKVDNALQSGNSQESVTEQDSKDSTYSLSSTLTLSKADYEKHKVYACEVTHQGLSSPVTKSFNRGECGGPSVFLFPPKPKDTLMISRTPEVTCVVVDVSHEDPEVKFNWYVDGVEVHN
chain 2: EVQLKESGPGLVAPGGSLSITCTVSGFSLTDSSINWVRQPPGKGLEWLGMIWGDGRIDYADALKSRLSISKDSSKSQVFLEMTSLRTDDTATYYCARDGYFPYAMDFWGQGTSVTVSSGGGGSGGGGSQVQLQQSGPELVKPGASVKISCKASGYSFTSYWIHWIKQRPGQGLEWIGMIDPSDGETRLNQRFQGRATLTVDESTSTAYMQLRSPTSEDSAVYYCTRLKEYGNYDSFYFDVWGAGTLVTVSSASTKGPSVFPLAPSSKSTSGGTAALGCLVKDYFPEPVTVSWNSGALTSGVHTFPAVLQSSGLYSLSSVVTVPSSSLGTQTYICNVNHKPSNTKVDKKVEPKSCDKGGGAKTKPREEQYNSTYRVVSVLTVLHQDWLNGKEYKCKVSNKALPAPIEKTISKAKGQPREHHHHHH
notes: Fab-like format with IgG1 split CH2 domain
The term Kd denotes the concentration at which binding is half-saturated. A lower Kd goes with higher affinity. In general, koff refers to the first-order rate constant of dissociation. The low end stands for a long-lived complex, the high end for a short-lived complex. The term kon denotes a measure of how fast the partners come together. Consider B1, for which, in assay [1], the Ka is 5.73e+10 M⁻¹, binding was put at a Kd of 0.0175 nM, the koff came to 0.000259 s⁻¹ and the kon stood at 1.48e+07 M⁻¹ s⁻¹. In assay [2], the Ka is 3.33e+10 M⁻¹, the equilibrium dissociation constant (Kd) was 0.03 nM, the koff worked out at 0.000426 s⁻¹ and the association rate constant (kon) is 1.42e+07 M⁻¹ s⁻¹. In assay [3], this molecule came in with a Kd of 0.03 nM.
